T1: CsIVP (Irregular Vasculature Patterning, bHLH) (Cucumis sativus, UniProt A0A0A0KHS6 1-223)
T1 sequence: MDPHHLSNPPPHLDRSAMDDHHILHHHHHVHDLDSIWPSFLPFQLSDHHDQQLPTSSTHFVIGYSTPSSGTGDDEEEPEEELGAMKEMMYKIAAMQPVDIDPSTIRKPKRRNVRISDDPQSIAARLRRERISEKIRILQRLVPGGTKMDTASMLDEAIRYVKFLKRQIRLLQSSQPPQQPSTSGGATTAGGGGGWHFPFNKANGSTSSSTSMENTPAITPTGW

B1: CsAUX4 promoter probe (-1492) (dsDNA)
DNA 1: AGGGATGGAGGTGAGCACATGGGAGGGCCGCTGCC
DNA 2: GGCAGCGGCCCTCCCATGTGCTCACCTCCATCCCT
B2: CsBP promoter probe (-333) (dsDNA)
DNA 1: ACTTTAATGGCGCACCCTCAACTGAGATATCTATACCC
DNA 2: GGGTATAGATATCTCAGTTGAGGGTGCGCCATTAAAGT
B3: CsCCR1 promoter probe (-1939) (dsDNA)
DNA 1: CAAAATTGACTTCTTCCACTTGTGCAGTCAAACAGTTC
DNA 2: GAACTGTTTGACTGCACAAGTGGAAGAAGTCAATTTTG
B4: CsYAB5 promoter probe (-1626) (dsDNA)
DNA 1: TATAAAATTGTTTTAACCAATTGAGTTATATACATTCAA
DNA 2: TTGAATGTATATAACTCAATTGGTTAAAACAATTTTATA

Legend:
[1] = molecular target: T1, CsIVP (Irregular Vasculature …); test: EMSA; 80, 120, 160 fmol probe; cold competitor; LightShift Chemiluminescent EMSA Kit (Thermo 20148), manufacturer's instructions; buffer, salt, pH and temperature not stated; conditions: protein: recombinant; tags: pET-28a vector (Ni-NTA purified); chain copies: 2; label: 5' biotin on forward strand; blunt
[2] = molecular target: T1, CsIVP (Irregular Vasculature …); test: EMSA; 80, 120, 160 fmol probe; LightShift Chemiluminescent EMSA Kit (Thermo 20148), manufacturer's instructions; buffer, salt, pH and temperature not stated; conditions: protein: recombinant; tags: pET-28a vector (Ni-NTA purified); chain copies: 2; label: 5' biotin on forward strand; blunt

Row | Binder | binding result [1] | binding result [2]
1 | B1 | binds | –
2 | B2 | binds | –
3 | B3 | – | no binding
4 | B4 | binds | –

— article PMC7117775, “CsIVP functions in vasculature development and downy mildew resistance in cucumber”
